Measured values: US6348311B1, “ATM kinase modulation for screening and therapies” (St. Jude Childre's Research Hospital, priority 1999, dated 2002)
Where a SMILES comes first, the peptide text is derived from it. Where no end group is shown, it is not given here. [ ]: non-standard residue; d: D form. Nle = CCCC[C@H](N)C(=O)O

Columns and labels:
[1] = tested on: p53 phosphoserine 15; assay: p53 Ser15 phosphorylation in lymphoblasts (immunoprecipitation and immunoblot); format: cell-based, human; settings: ALLN 90 min
Protocol: Posttranslational modification of p53 on Ser^15 in response to ionizing radiation. Monoclonal antibodies against a chemically synthesized p53 phosphoserine-15 peptide (amino acids 9-22) were used to immunoblot synthetic peptides (1×, 50 μg) consisting of the first 24 amino acids of p53 with (1-24^S15-P) or without (1-24) phosphoserine 15. Normal WT (2184) or AT (1526) lymphoblasts were untreated or treated with 5 Gy IR (IR) or 20 mM ALLN for 90 min. p53 was immunoprecipitated, subjected to SDS-PAGE (7.5% gel), transferred to nitrocellulose, and immunoblotted with the monoclonal antibody to phosphoserine 15 p53 (upper panel). Blots were then stripped and immunoblotted with antibodies to p53 (lower panel).
Normal (2184) and AT (1526) EBV immortalized human lymphoblasts were irradiated with a ^137Cs source or treated with 20 mm ALLN (Sigma) for 90 min. Cells were then harvested, lysed, and p53 was immunoprecipitated as described (Siliciano et al., Genes Dev., 11:3471, 1997). Immunoprecipitates were resolved by non-reducing SDS-PAGE, transferred to nitrocellulose and immunoblotted with monoclonal antibody to phosphoserine 15. Blots were stripped and reprobed with p53-specific monoclonal antibodies (Ab-2 and Ab-6).

[2] = tested on: p95 Ser343 phosphorylation; assay: IR-induced phosphorylation of Myc-p95 on Ser343 in co-transfected 293T cells; format: cell-based; settings: co-transfected with p95 into 293T cells, 5 Gy IR
Description: FIGS. 4A and 4B. In vivo phosphorylation of p95 on ser343 by ATM upon ionizing irradiation. (A) Phosphorylation of p95 on Ser343 by IR in an ATM-dependent manner in vivo. […] The expression of Flag-ATM in each cell lysates was detected with anti-Flag antibody (top panel). Immunoprecipitated Myc-p95 was blotted with anti-a-p95-phosphoserine 343 antibody (middle panel) or anti-Myc antibody (lower panel). (B) Phosphorylation of endogenous p95 on Ser343 in normal cells, but not AT cells, after IR. Normal (WT, GM0536) or AT (GM1526) lymphoblasts were treated with either 0 (−) or 5 (+) Gy IR. Endogenous p95 was immunoprecipitated and blotted with anti-a-p95-phosphoserine 343 antibody (top panel) or anti-p95 antibody (lower panel).
In vivo phosphorylation of p95. Myc-tagged p95 (3 μg) was transiently co-transfected into 293T cells with wtATM, kdATM, or pCDNA3 (7μg) using calcium phosphate. After 2 days, cells were harvested and Myc-p95 was immunoprecipitated, subjected to SDS-PAGE (7.5%), transferred to nitrocelluose, and immunoblotted with α-cMyc antibody or the α-p95-phosphoserine 343 polyclonal mouse antibody. For metabolic labeling, the cells were washed with phosphate free RPMI plus 10% dialyzed fetal bovine serum and incubated for 30 min before irradiation. […] After electrophoresis in 7.5% SDS-PAGE, radiolabeled p95 and ATM were visualized and quantified on a PhosphorImager.

[3] = target: DNA-PK (Homo sapiens, UniProt P78527); assay: In vitro kinase assay, purified DNA-PK with GST-peptide / GST-fusion substrates; format: biochemical; settings: GST-peptide substrate; relative to the p53ser15 site
Protocol: (§1) FIGS. 1A, 1B, and 1C. Phosphorylation of GST-p53 mutant peptides (amino acids 9-21) by ATM, ATR, and DNA-PK in vitro. In vitro kinase assays with immunoprecipitated, transfected flag-tagged ATM (A) or ATR (B) or purified DNA-PK (C) were performed with GST-p53 peptides containing the amino acid substitutions indicated. The amount of 32P-labeled GST-peptides was quantitated with a PhosphorImager and was normalized for each of the kinases to the level of phosphorylation of wild-type GST-p53.
(§2) FIGS. 2A, 2B, and 2C. Phosphorylation of candidate targets of by ATM, ATR and DNA-PK in vitro. GST-peptides containing the putative target sequences were used as substrates for the kinase assay.
(§3) Plasmids and GST-fusion protein production. For GST fusion peptide expression vectors, complementary oligonucleotides encoding desired peptides (14 amino acids) were cloned into the BamHI/SmaI site of pGEX-2T (Pharmacia). The constructs were confirmed by restriction enzyme digests and DNA sequencing. To construct the larger GST-p95 (327-391) protein fragment, p95 DNA encoding amino acids 327-391 was amplified by PCR with Pfu polymerase using the following primers: 5′ sense,
In vitro kinase assays and immunoprecipitation. […] Cleared supernatants were immunoprecipitated with anti-Flag M2 antibody and protein A/G agarose, the beads were washed with TGN buffer followed by TGN buffer plus 0.5 M LiCl, and two washes with kinase buffer [20 mM HEPES (pH 7.5), 50 mM NaCl, 10 mM MgCl2, 1 mM dithiothreitol (DTT) and 10 mM MnCl2]. […] ATP and […] of GST-fusion substrate (GST-p53:1-101), in varying concentration of Mn^2+. The kinase reaction was conducted at 30° C. for 20 min and stopped by the addition of SDS-PAGE loading buffer. Proteins were separated on SDS-polyacrylamide gel electrophoresis (SDS-PAGE) and transferred to nitrocellulose. Radiolabeled proteins were visualized and quantitated on a Phosphorimager (Molecular Dynamics). Use of equivalent amounts of flag-tagged ATM or ATR in the different lanes was confirmed by immunoblotting with anti-flag antibody. In some reactions, either supercoiled DNA (pBluescript II KS, Stratagene) or linearized DNA (pBluescript II KS cut with EcoR1) was added ([…]). For endogenous ATM kinase reactions, endogenous ATM was immunoprecipitated from GM0536 lymphhoblasts with ATM monoclonal antibody (D16.11) in M buffer (PBS, 10% glycerol, 0.2% Tween 20, 0.3% NP-40, 1 mM NaF, 1 mM Na3VO4, 1 mM PMSF, 1x protease inhibitor mixture]. After washing with M buffer and kinase buffer, in vitro kinase reactions were carried out according to procedures described above. The DNA-PK in vitro kinase reaction was performed as previously described (Gottlieb and Jackson, 1993), using 20 ng each of DNA-PKcs or DNA-PK (20 ng DNA-PKcs premixed with 20 ng Ku 70/80).

[4] = target: T1, ATR (Homo sapiens, UniProt Q13535); assay: In vitro kinase assay, ATR with GST-peptide / GST-fusion substrates; format: biochemical; settings: GST-peptide substrate; relative to the p53ser15 site
T1 construct: made in house; host or cells: 293T cells, transient transfection with pBJF-FRPwt, anti-FLAG M2 immunoprecipitate
T1 sequence (Q13535 whole entry, the tested form may be a part): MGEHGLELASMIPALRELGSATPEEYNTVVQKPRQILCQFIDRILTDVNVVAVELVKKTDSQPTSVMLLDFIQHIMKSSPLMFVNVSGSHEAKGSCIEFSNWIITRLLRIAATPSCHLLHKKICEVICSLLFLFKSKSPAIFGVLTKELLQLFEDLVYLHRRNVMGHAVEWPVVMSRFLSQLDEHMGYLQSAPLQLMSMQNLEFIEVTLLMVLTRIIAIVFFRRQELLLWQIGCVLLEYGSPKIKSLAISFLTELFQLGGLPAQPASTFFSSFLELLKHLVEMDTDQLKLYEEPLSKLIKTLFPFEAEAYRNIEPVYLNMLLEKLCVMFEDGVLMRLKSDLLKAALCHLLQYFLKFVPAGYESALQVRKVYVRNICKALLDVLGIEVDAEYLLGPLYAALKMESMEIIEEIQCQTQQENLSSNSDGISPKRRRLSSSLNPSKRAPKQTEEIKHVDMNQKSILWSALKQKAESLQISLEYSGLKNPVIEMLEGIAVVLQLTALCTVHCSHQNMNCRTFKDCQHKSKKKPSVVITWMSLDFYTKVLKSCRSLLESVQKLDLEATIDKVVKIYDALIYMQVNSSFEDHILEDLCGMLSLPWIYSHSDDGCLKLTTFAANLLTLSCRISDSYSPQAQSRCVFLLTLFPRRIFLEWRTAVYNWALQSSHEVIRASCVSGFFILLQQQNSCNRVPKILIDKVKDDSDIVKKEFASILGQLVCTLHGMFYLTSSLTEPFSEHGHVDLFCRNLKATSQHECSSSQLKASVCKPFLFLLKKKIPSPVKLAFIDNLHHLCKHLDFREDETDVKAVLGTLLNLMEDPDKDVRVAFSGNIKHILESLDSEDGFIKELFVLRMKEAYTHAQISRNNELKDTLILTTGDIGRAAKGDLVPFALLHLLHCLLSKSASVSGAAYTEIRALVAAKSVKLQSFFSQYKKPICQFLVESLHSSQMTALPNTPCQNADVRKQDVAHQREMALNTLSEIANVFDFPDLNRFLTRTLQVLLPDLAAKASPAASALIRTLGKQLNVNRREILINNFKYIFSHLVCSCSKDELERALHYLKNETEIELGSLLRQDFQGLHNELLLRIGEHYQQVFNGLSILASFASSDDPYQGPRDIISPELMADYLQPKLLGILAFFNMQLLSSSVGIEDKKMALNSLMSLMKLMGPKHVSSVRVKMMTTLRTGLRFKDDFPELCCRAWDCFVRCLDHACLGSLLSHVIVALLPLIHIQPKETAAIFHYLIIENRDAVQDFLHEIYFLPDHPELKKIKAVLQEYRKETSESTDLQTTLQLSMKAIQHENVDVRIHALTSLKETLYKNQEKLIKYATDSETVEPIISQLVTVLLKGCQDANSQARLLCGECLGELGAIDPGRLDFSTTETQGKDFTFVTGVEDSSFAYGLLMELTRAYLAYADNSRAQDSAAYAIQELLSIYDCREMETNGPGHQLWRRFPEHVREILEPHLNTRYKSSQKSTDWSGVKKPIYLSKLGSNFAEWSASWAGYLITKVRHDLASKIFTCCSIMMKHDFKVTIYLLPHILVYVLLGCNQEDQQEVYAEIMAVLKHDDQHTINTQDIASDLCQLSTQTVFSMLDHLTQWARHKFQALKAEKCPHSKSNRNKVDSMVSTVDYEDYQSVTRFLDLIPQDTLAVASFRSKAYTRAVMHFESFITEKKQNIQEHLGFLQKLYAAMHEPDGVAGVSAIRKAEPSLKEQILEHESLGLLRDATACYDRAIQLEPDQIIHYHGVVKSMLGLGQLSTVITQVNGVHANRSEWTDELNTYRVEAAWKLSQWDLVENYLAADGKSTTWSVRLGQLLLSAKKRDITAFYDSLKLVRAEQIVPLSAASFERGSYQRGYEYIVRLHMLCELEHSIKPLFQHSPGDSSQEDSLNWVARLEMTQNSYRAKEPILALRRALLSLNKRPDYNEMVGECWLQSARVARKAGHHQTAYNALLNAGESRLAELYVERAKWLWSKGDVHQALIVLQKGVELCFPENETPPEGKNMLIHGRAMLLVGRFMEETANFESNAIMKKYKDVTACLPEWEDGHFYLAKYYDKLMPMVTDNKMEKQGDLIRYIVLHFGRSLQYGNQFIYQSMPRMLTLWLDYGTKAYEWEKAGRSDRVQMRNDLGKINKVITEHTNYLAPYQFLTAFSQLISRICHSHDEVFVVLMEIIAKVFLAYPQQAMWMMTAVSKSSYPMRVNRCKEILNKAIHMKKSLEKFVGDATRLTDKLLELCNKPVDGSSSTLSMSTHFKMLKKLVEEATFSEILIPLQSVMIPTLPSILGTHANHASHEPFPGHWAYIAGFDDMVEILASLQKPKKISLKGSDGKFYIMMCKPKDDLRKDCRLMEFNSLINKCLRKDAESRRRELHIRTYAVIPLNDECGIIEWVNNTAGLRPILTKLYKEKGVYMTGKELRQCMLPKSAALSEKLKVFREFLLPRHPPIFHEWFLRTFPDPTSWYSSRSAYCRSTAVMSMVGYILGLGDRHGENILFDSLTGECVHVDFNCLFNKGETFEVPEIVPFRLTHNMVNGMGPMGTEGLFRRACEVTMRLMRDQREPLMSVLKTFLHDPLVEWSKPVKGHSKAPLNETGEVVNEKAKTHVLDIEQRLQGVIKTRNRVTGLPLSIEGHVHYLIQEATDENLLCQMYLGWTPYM
Protocol: as §1, §2
Transfection and Kinase Activity Assays. 293T cells were transiently transfected with 10 μg of either pcDNA-FLAG-ATMwt, pcDNA-FLAG-ATMkd, pBJF-FRPwt or pBJF-FRPkd (Cliby et al., EMBO J., 17:159, 1998) using calcium phosphate and harvested two days later. Cells were lysed through sonication in TGN buffer [50 mM Tris (pH 7.5), 50 mM glycerophosphate, 150 mM NaCl, 10% glycerol, 1% Tween 20, 1 mM NaF, 1 mM NaVO4, 1 mM PMSF, […] Pepstatin A, 5 μg/ml leupeptin, 10 μg/ml Aprotinin and 1 mM DTT] as described (Brunn et al., Science, 277:99-101,1997). After centrifugation at 13,000 ×g, 2 mg of extract were incubated with mouse IgG and protein A/G sepharose beads (Calbiochem). FLAG-tagged proteins were then immunoprecipitated with anti-FLAG M2 monoclonal antibody (Eastman Kodak Company) and protein A/G sepharose beads. Immunoprecipitates were washed twice with TGN buffer, once with 100 mM Tris (pH 7.5) plus 0.5 M LiCl, and twice with kinase buffer [10 mM Hepes (pH 7.5), 50 mM glycerophosphate, 50 mM NaCl, 10 mM MgCl2, 10 mM MnCl2, 5 μM ATP, and 1 mM DTT]. Kinase reactions were initiated by resuspending washed beads in 30 μl of kinase buffer containing 10 μCi [γ-^32P]ATP and 1 μg GSTp531-101 and incubated for 30 minutes at 30° C. Proteins were electrophoretically separated by SDS-polyacrylamide gel electrophoresis, transferred to nitrocellulose, and analyzed on a PhosphorImager. FLAG-tagged proteins and GSTp531-101 were subjected to immunoblotting with either anti-FLAG M2 antibody or monoclonal antibodies directed towards the NH2-terminus of p53 (Ab-2 and Ab-6, Calbiochem) as described (Siliciano et al., Genes Dev., 11:3471, 1997).
Phosphorylation of Ser^15 of p53 by ATM and ATR/FRP1 in vitro. […] Proteins from each reaction were separated by SDS polyacrylamide gel electrophoresis (7% gel), transferred to nitrocellulose, and analyzed either on a PhosphorImager or by immunoblotting. Amounts of FLAG-tagged ATM or ATR in each kinase reaction were measured by immunoblotting with anti-FLAG M2 (top panel) and amount of [γ^32P]phosphate incorporated into ATM or ATR during the reaction (lower panel). […] An upper immunoreactive band represents phosphorylated GSTp53 fusion protein. The same exposures were used for ATM, ATR/FRP1 and corresponding substrate proteins.
as §3
In vitro kinase assays and immunoprecipitation. […] Cleared supernatants were immunoprecipitated with anti-Flag M2 antibody and protein A/G agarose, the beads were washed with TGN buffer followed by TGN buffer plus 0.5 M LiCl, and two washes with kinase buffer [20 mM HEPES (pH 7.5), 50 mM NaCl, 10 mM MgCl2, 1 mM dithiothreitol (DTT) and 10 mM MnCl2]. […] ATP and […] of GST-fusion substrate (GST-p53:1-101), in varying concentration of Mn^2+. […]

[5] = target: T2, ATM kinase (Homo sapiens, UniProt Q13315); assay: In vitro kinase assay, ATM with GST-peptide / GST-fusion substrates; format: biochemical; settings: GST-peptide substrate; relative to the p53ser15 site;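 further: immunoprecipitated ATM incubated with [γ-32P]ATP at 30 °C for 20 min, substrates resolved by SDS-PAGE and radiolabel incorporation quantified by PhosphorImager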
T2 construct: The full-length cDNA encoding NH2-terminal, FLAG-tagged wild-type ATM; made in house; host or cells: 293T cells, transient transfection with pcDNA-FLAG-ATMwt, anti-FLAG M2 immunoprecipitate on beads

Molecule	effect on p53 protein ([1]; lymphoblasts)	Phosphoserine 15 of p53 ([1]; normal lymphoblasts)	IR-induced phosphorylation of p95ser343 [2]	Relative Phosphorylation (%) DNA-PK [3] [%]	Relative Phosphorylation (%) ATR [4] [%]	Relative Phosphorylation (%) ATM [5] [%]
CCCC[C@@H](C=O)NC(=O)[C@H](CC(C)C)NC(=O)[C@H](CC(C)C)NC(C)=O [ALLN, acetyl-Leu-Leu-norleucinal] (Ac-Leu-Leu-[Nle]-aldehyde)	stabilization of p53 protein	undetectable				
kinase-inactive form of ATM: FLAG-tagged full-length ATM mutant D2870A and N2875K, kinase-dead, dominant-negative			significantly inhibited			
p53 S37: GST-peptide VLSPLPSQAMDDLM (SEQ ID NO:8), p53 serine 37 site (not fully specified (N-terminus); also: GST fusion; listed as Homo sapiens)				132	31	9
p95: GST-peptide TPGPSLSQGVSVDE (SEQ ID NO:10), S343 (not fully specified (N-terminus); also: GST fusion; listed as Homo sapiens)				45	31	19
p115-RhoGEF: GST-peptide RLRPLLSQLGGNSV (SEQ ID NO:27), S899 (not fully specified (N-terminus); also: GST fusion; listed as Homo sapiens)				<1	15	<1
p120E4F: GST-peptide APEPPVSQELPCSR (SEQ ID NO:31), S355 (not fully specified (N-terminus); also: GST fusion; listed as Homo sapiens)				2	30	11
β3A Adaptin: GST-peptide ELKPVLSQG (SEQ ID NO:43), S1092 (not fully specified (N-terminus); also: GST fusion; listed as Homo sapiens)				44	22	6
β-ADAPTIN: GST-peptide CRAPEVSQHVYQAY (SEQ ID NO:28), S935 (not fully specified (N-terminus); also: GST fusion; listed as Homo sapiens)				2	22	5
